# Where a chain is given by its changes, count along the chain named.
# B1: IFWM3331 (antibody, IgG1, V domains shown)
# VH: EVQLVQSGAEVKKPGESLKISCKGSGYSFTSYWIGWVRQMPGKGLEWMGIIDPSDSDTRYSPSFQGQVTISADKSISTAYLQWSSLKASDTAMYYCARHPGLNWAPDFDYWGQGTLVTVSS
# VL: DIQMTQSPSSLSASVGDRVTITCRASQSIDNSYLNWYQQKPGKAPKLLIYGASSLQSGVPSRFSGSGSGTDFTLTISSLQPEDFATYYCQQGWDWPLTFGQGTKVEIK
# B2: IFWM3421 (antibody, IgG1, V domains shown)
# VH: B1 VH
# VL: DIQMTQSPSSLSASVGDRVTITCRASQSIDGFLNWYQQKPGKAPKLLIYFASSLQSGVPSRFSGSGSGTDFTLTISSLQPEDFATYYCQQSYDLPITFGQGTKVEIK
# B3: IFWM3321 (antibody, IgG1, V domains shown)
# VH: B1 VH
# VL: B2 VL with F32A, S91A, L94F, I96L
# B4: IFWM3310 (antibody, IgG1, V domains shown)
# VH: B1 VH
# VL: B2 VL with D30G, G31K, F32S, L94F, I96L
# B5: IFWM3308 (antibody, IgG1, V domains shown)
# VH: B1 VH
# VL: B2 VL with D30A, G31E, Y92I, L94F, I96L
# B6: IFWM3304 (antibody, IgG1, V domains shown)
# VH: B1 VH
# VL: B2 VL with D30G, G31S, F32A, L94F, I96L
# B7: IFWM3307 (antibody, IgG1, V domains shown)
# VH: B1 VH
# VL: B2 VL with D30G, G31D, S91A, Y92L, L94F, I96L
# B8: IFWM3423 (antibody, IgG1, V domains shown)
# VH: B1 VH with N103A
# VL: B2 VL
# B9: IFWM3322 (antibody, IgG1, V domains shown)
# VH: B1 VH
# VL: B2 VL with D30A, G31D, Y92H, D93S, L94F, I96L
# B10: IFWM3328 (antibody, IgG1, V domains shown)
# VH: B1 VH
# VL: DIQMTQSPSSLSASVGDRVTITCRASQSINNLNWYQQKPGKAPKLLIYWASSLQSGVPSRFSGSGSGTDFTLTISSLQPEDFATYYCQQGYDTPFTFGQGTKVEIK
# B11: IFWM371 (antibody, IgG1, V domains shown)
# VH: B1 VH
# VL: not shown
# B12: IFWM3314 (antibody, IgG1, V domains shown)
# VH: B1 VH
# VL: B2 VL with G31R, F32A, Y92F, L94F, I96L
# B13: IFWM3320 (antibody, IgG1, V domains shown)
# VH: B1 VH
# VL: B2 VL with D30N, F32V, Y92H, L94F, I96L
# B14: IFWM3332 (antibody, IgG1, V domains shown)
# VH: B1 VH
# VL: B1 VL with D30A, S32T, Y33N, Y50H, G51W, G92W, W93Y, W95N
# B15: IFWM3413 (antibody, IgG1, V domains shown)
# VH: B1 VH with N103A
# VL: B10 VL with N31Y, W49G, G90S, Y91H, T93W, F95I
# notes: mAb; IgG1/kappa said of the parent and of selected mAbs; also called IFWB3148
# B16: IFWM3414 (antibody, IgG1, V domains shown)
# VH: B1 VH with N103A
# VL: B1 VL with D30R, S32N, G51A, W93Y, W95T
# notes: mAb; IgG1/kappa said of the parent and of selected mAbs; also called IFWB3149
# B17: IFWM3376 (antibody, IgG1, V domains shown)
# VH: B1 VH with R59A
# VL: B1 VL with D30S, Y33N, Y50H, G51W, G92W, W93Y, W95H
# notes: mAb; IgG1/kappa said of the parent and of selected mAbs; also called IFWB3111
# B18: IFWM3407 (antibody, IgG1, V domains shown)
# VH: B1 VH with N103A
# VL: B1 VL with D30R, S32N, Y33N, Y50H, G51W, W93Y, W95T, L97F
# notes: mAb; IgG1/kappa said of the parent and of selected mAbs; also called IFWB3142
# B19: IFWM3409 (antibody, IgG1, V domains shown)
# VH: B1 VH with N103A
# VL: B1 VL
# notes: mAb; IgG1/kappa said of the parent and of selected mAbs; also called IFWB3144
# B20: IFWM3417 (antibody, IgG1, V domains shown)
# VH: B1 VH with N103A
# VL: B1 VL with D30A, S32N, Y33D, Y50H, G51W, G92D, W93Y
# notes: mAb; IgG1/kappa said of the parent and of selected mAbs; also called IFWB3152
# B21: IFWM3377 (antibody, IgG1, V domains shown)
# VH: B1 VH with R59A
# VL: B1 VL with D30R, S32T, Y33N, Y50H, G51W, W93Y, W95T, L97F
# notes: mAb; IgG1/kappa said of the parent and of selected mAbs; also called IFWB3112
# B22: IFWM3378 (antibody, IgG1, V domains shown)
# VH: B1 VH with R59A
# VL: B1 VL with D30A, S32N, Y33D, Y50H, G51W, G92D, W93Y
# notes: mAb; IgG1/kappa said of the parent and of selected mAbs; also called IFWB3113
# B23: IFWM3415 (antibody, IgG1, V domains shown)
# VH: B1 VH with N103A
# VL: B1 VL with D30S, Y33N, Y50H, G51W, G92W, W93Y, W95H
# notes: mAb; IgG1/kappa said of the parent and of selected mAbs; also called IFWB3150
# B24: IFWM3411 (antibody, IgG1, V domains shown)
# VH: B1 VH with N103A
# VL: B1 VL with S32N, Y33N, G51A, W93Y
# notes: mAb; IgG1/kappa said of the parent and of selected mAbs; also called IFWB3146
# B25: IFWM3406 (antibody, IgG1, V domains shown)
# VH: B1 VH with N103A
# VL: B10 VL
# notes: mAb; IgG1/kappa said of the parent and of selected mAbs; also called IFWB3141
# Molecular target: IFN-αH2 (human, UniProt P01570 24-189)
# Assay: cell-based or functional assay
row,Binder,"IC50, ISRE assay [nM]"
1,B1,0.033
2,B2,0.008
3,B3,0.028
4,B4,0.045
5,B5,0.032
6,B6,0.042
7,B7,0.088
8,B8,0.004
9,B9,0.046
10,B10,0.44
11,B11,9.6
12,B12,0.04
13,B13,0.023
14,B14,0.092

# Molecular target: T1, IFN-αC (human, UniProt P01566 24-189)
# Assay: cell-based or functional assay
row,Binder,"IC50, ISRE assay [nM]"
1,B1,0.098
2,B2,0.02
3,B3,0.266
4,B4,0.196
5,B5,0.996
6,B6,0.117
7,B7,0.583
8,B8,0.012
9,B9,0.306
10,B10,1.42
11,B11,53.9
12,B12,0.157
13,B13,0.392
14,B14,0.479

# Molecular target: T2, IFN-αF (human, UniProt P01568 24-189)
# T2 chain: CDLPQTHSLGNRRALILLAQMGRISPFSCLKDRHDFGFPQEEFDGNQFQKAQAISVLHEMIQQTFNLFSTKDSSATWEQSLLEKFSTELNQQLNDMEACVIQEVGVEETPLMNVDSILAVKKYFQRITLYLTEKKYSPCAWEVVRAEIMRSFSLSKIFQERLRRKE
# Assay: cell-based or functional assay
row,Binder,"IC50, ISRE assay [nM]"
1,B1,0.048
2,B2,0.011
3,B3,0.054
4,B4,0.111
5,B5,0.155
6,B6,0.062
7,B7,0.17
8,B8,0.008
9,B9,0.117
10,B10,0.631
11,B11,16
12,B12,0.058
13,B13,0.054
14,B14,0.228

# Molecular target: T3, IFN-αG (human, UniProt P01569 24-189)
# Assay: cell-based or functional assay
row,Binder,"IC50, ISRE assay [nM]"
1,B1,0.027
2,B2,0.018
3,B3,0.034
4,B4,0.073
5,B5,0.167
6,B6,0.047
7,B7,0.095
8,B8,0.009
9,B9,0.083
10,B10,0.486
11,B11,12.9
12,B12,0.057
13,B13,0.082
14,B14,0.099

# Molecular target: T4, human IFN-ω (human, UniProt P05000 24-195)
# T4 construct: Recombinant, HEK293; also called interferon omega
# Assay: ProteOn SPR, cell supernatant;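 also: each binding measurement used just a single antigen concentration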
# Description: (§1) To increase the assay throughput, only one concentration of the individual antigen was used.
row,Binder,Kd [nM]
1,B15,0.047
2,B16,0.058
3,B17,0.02
4,B18,0.017
5,B19,0.014
6,B20,0.029
7,B21,0.027
8,B22,0.075
9,B23,0.018
10,B24,0.028
11,B25,0.078

# Molecular target: T1, IFN-αC
# Assay: ProteOn SPR, cell supernatant;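 also: each binding measurement used just a single antigen concentration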
# Description: as §1
row,Binder,Kd [nM]
1,B15,0.037
2,B16,0.068
3,B17,0.034
4,B18,0.032
5,B19,0.011
6,B20,0.031
7,B21,0.044
8,B22,0.172
9,B23,0.019
10,B24,0.023
11,B25,0.037

# Molecular target: T2, IFN-αF
# Assay: ProteOn SPR, cell supernatant;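 also: each binding measurement used just a single antigen concentration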
# Description: as §1
row,Binder,Kd [nM]
1,B15,0.033
2,B16,0.101
3,B17,0.039
4,B18,0.033
5,B19,0.009
6,B20,0.039
7,B21,0.051
8,B22,0.168
9,B23,0.026
10,B24,0.037
11,B25,0.037

# Molecular target: T5, IFN-αJ1 (human, UniProt P01567 24-189)
# T5 construct: Recombinant, HEK293; also called IFN-α7
# Assay: ProteOn SPR, cell supernatant;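 also: each binding measurement used just a single antigen concentration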
# Description: as §1
row,Binder,Kd [nM]
1,B15,0.15
2,B16,0.174
3,B17,0.14
4,B18,0.058
5,B19,0.041
6,B20,0.07
7,B21,0.192
8,B22,0.496
9,B23,0.051
10,B24,0.151
11,B25,0.119

# Molecular target: T6, IFN-α4a (human, UniProt P05014 24-189)
# T6 construct: Recombinant, HEK293; also called IFN-αM1
# Assay: ProteOn SPR, cell supernatant;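 also: each binding measurement used just a single antigen concentration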
# Description: as §1
row,Binder,Kd [nM]
1,B15,0.206
2,B16,0.193
3,B17,0.113
4,B18,0.128
5,B19,0.058
6,B20,0.1
7,B21,0.193
8,B22,0.533
9,B23,0.069
10,B24,0.101
11,B25,0.135

# Molecular target: T3, IFN-αG
# Assay: ProteOn SPR, cell supernatant;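 also: each binding measurement used just a single antigen concentration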
# Description: as §1
row,Binder,Kd [nM]
1,B15,0.044
2,B16,0.033
3,B17,0.048
4,B18,0.027
5,B19,0.005
6,B20,0.03
7,B21,0.038
8,B22,0.15
9,B23,0.026
10,B24,0.035
11,B25,0.037

# Molecular target: T7, IFN-αWA (human, UniProt P05015 24-189)
# T7 construct: Recombinant, HEK293; also called IFN-α16
# Assay: ProteOn SPR, cell supernatant
# Description: as §1
row,Binder,Kd [nM]
1,B15,0.085
2,B16,0.07
3,B17,0.062
4,B18,0.06
5,B19,0.025
6,B20,0.059
7,B21,0.12
8,B22,0.248
9,B23,0.044
10,B24,0.087
11,B25,0.063

# From patent publication US20150368338A1 (Janssen / Centocor, published 2015)
